Reference: patent publication US20150368338A1 (Janssen / Centocor, published 2015)
Residue numbers refer to the chain shown, from its start.

T1: IFN-αF (human, UniProt P01568 24-189)
T1 construct: also called IFN-α21; alpha F
T1 chain: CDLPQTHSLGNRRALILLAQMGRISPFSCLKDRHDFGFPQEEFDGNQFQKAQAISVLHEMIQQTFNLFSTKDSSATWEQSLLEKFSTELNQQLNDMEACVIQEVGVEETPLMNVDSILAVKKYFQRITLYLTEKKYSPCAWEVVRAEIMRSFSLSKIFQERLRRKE

B1: IFWM3351 (antibody, V domains shown)
VH: EVQLVQSGAEVKKPGESLKISCKGSGYSFTSYWIGWVRQMPGKGLEWMGIIDPSDSDTAYSPSFQGQVTISADKSISTAYLQWSSLKASDTAMYYCARHPGLNWAPDFDYWGQGTLVTVSS
VL: DIQMTQSPSSLSASVGDRVTITCRASQSIDGALNWYQQKPGKAPKLLIYFASSLQSGVPSRFSGSGSGTDFTLTISSLQPEDFATYYCQQSFDFPLTFGQGTKVEIK
notes: VH IFWH624, VL IFWL1010; converted mAb; also called IFWB3086
B2: IFWM3329 (antibody, V domains shown)
VH: B1 VH with A59R
VL: DIQMTQSPSSLSASVGDRVTITCRASQSIRNNNLNWYQQKPGKAPKLLIHWASSLQSGVPSRFSGSGSGTDFTLTISSLQPEDFATYYCQQGYDTPFTFGQGTKVEIK
notes: VH IFWH591, VL IFWL1067; converted mAb; also called IFWB3064
B3: IFWM3328 (antibody, V domains shown)
VH: B1 VH with A59R
VL: DIQMTQSPSSLSASVGDRVTITCRASQSINNLNWYQQKPGKAPKLLIYWASSLQSGVPSRFSGSGSGTDFTLTISSLQPEDFATYYCQQGYDTPFTFGQGTKVEIK
notes: VH IFWH591, VL IFWL1064; converted mAb; also called IFWB3063
B4: IFWM3364 (antibody, V domains shown)
VH: B1 VH
VL: B1 VL with D30R, G31N, A32S, Y49K, F50W, S91L, F92Y, F94W
notes: VH IFWH624, VL IFWL1060; converted mAb; also called IFWB3099
B5: IFWM3337 (antibody, V domains shown)
VH: B1 VH with A59R
VL: B2 VL with R30S, N32S, G92W, T95H, F97L
notes: VH IFWH591, VL IFWL1087; converted mAb; also called IFWB3072
B6: IFWM3354 (antibody, V domains shown)
VH: B1 VH
VL: B1 VL with D30T, G31S, A32S, F94L
notes: VH IFWH624, VL IFWL1017; converted mAb; also called IFWB3089
B7: IFWM3332 (antibody, V domains shown)
VH: B1 VH with A59R
VL: B2 VL with R30A, N32T, G92W, T95N, F97L
notes: VH IFWH591, VL IFWL1074; converted mAb; also called IFWB3067
B8: IFWM3353 (antibody, V domains shown)
VH: B1 VH
VL: B1 VL with G31R
notes: VH IFWH624, VL IFWL1014; converted mAb; also called IFWB3088
B9: IFWM3336 (antibody, V domains shown)
VH: B1 VH with A59R
VL: B2 VL with N33Y, H50Y, W51A, F97L
notes: VH IFWH591, VL IFWL1085; converted mAb; also called IFWB3071
B10: IFWM3360 (antibody, V domains shown)
VH: B1 VH
VL: B1 VL with S91A, F92Y
notes: VH IFWH624, VL IFWL1048; converted mAb; also called IFWB3095
B11: IFWM3355 (antibody, V domains shown)
VH: B1 VH
VL: B1 VL with D30N, G31E, A32F, F92Y, D93S, F94T
notes: VH IFWH624, VL IFWL1022; converted mAb; also called IFWB3090
B12: IFWM3358 (antibody, V domains shown)
VH: B1 VH
VL: B1 VL with D30T, A32F, F50A, F92H
notes: VH IFWH624, VL IFWL1041; converted mAb; also called IFWB3093
B13: IFWM3357 (antibody, V domains shown)
VH: B1 VH
VL: B1 VL with D30S, G31E, A32Y, F92H, D93S, F94L, L96I
notes: VH IFWH624, VL IFWL1038; converted mAb; also called IFWB3092
B14: IFWM3359 (antibody, V domains shown)
VH: B1 VH
VL: B1 VL with D30N, A32V, F92H
notes: VH IFWH624, VL IFWL1047; converted mAb; also called IFWB3094
B15: IFWM3335 (antibody, V domains shown)
VH: B1 VH with A59R
VL: B3 VL with N31Y, W49G, G90S, Y91H, T93W, F95I
notes: VH IFWH591, VL IFWL1084; converted mAb; also called IFWB3070
B16: IFWM3334 (antibody, V domains shown)
VH: B1 VH with A59R
VL: B2 VL with N33S, H50Y, W51A, G92D, D94N, T95W, F97L
notes: VH IFWH591, VL IFWL1082; converted mAb; also called IFWB3069
B17: IFWM3327 (antibody, V domains shown)
VH: B1 VH with A59R
VL: B2 VL with R30A
notes: VH IFWH591, VL IFWL1063; converted mAb; also called IFWB3062
B18: IFWM3338 (antibody, V domains shown)
VH: B1 VH with A59R
VL: B2 VL with N32T
notes: VH IFWH591, VL IFWL1091; converted mAb; also called IFWB3073
B19: IFWM3331 (antibody, V domains shown)
VH: B1 VH with A59R
VL: B2 VL with R30D, N32S, N33Y, H50Y, W51G, Y93W, T95W, F97L
notes: VH IFWH591, VL IFWL1073; converted mAb; also called IFWB3066
B20: IFWM3333 (antibody, V domains shown)
VH: B1 VH with A59R
VL: B2 VL with R30D, H50Y, W51A, T95W, F97L
notes: VH IFWH591, VL IFWL1076; converted mAb; also called IFWB3068
B21: IFWM3352 (antibody, V domains shown)
VH: B1 VH
VL: B1 VL with D30N, G31N, A32F, D93N, F94L, L96I
notes: VH IFWH624, VL IFWL1013; converted mAb; also called IFWB3087
B22: IFWM3361 (antibody, V domains shown)
VH: B1 VH
VL: B1 VL with D30A, G31D, A32F, F92H, D93S
notes: VH IFWH624, VL IFWL1051; converted mAb; also called IFWB3096
B23: IFWM3339 (antibody, V domains shown)
VH: B1 VH with A59R
VL: B2 VL with R30A, N33D, G92D, T95W, F97L
notes: VH IFWH591, VL IFWL1093; converted mAb; also called IFWB3074

Target: T1, IFN-αF
Assay: ProteOn, one antigen concentration

Row | Kd | Binder
1 | 53 pM | B1
2 | 51 pM | B2
3 | 91 pM | B3
4 | 109 pM | B4
5 | 16 pM | B5
6 | 32 pM | B6
7 | 54 pM | B7
8 | 55 pM | B8
9 | 61 pM | B9
10 | 49 pM | B10
11 | 52 pM | B11
12 | 47 pM | B12
13 | 39 pM | B13
14 | 53 pM | B14
15 | 61 pM | B15
16 | 5210 pM | B16
17 | 35 pM | B17
18 | 64 pM | B18
19 | 13 pM | B19
20 | 89 pM | B20
21 | 152 pM | B21
22 | 135 pM | B22
23 | 65 pM | B23

target: T2, IFN-αG (human, UniProt P01569 24-189); assay: ProteOn, one antigen concentration
T2 construct: also called IFN-α5; alpha G

Row | Kd | Binder
24 | 15 pM | B1
25 | 61 pM | B2
26 | 72 pM | B3
27 | 80 pM | B4
28 | 34 pM | B5
29 | 43 pM | B6
30 | 50 pM | B7
31 | 16 pM | B8
32 | 51 pM | B9
33 | 43 pM | B10
34 | 60 pM | B11
35 | 48 pM | B12
36 | 14 pM | B13
37 | 40 pM | B14
38 | 77 pM | B15
39 | 941 pM | B16
40 | 35 pM | B17
41 | 46 pM | B18
42 | 15 pM | B19
43 | 77 pM | B20
44 | 90 pM | B21
45 | 66 pM | B22
46 | 79 pM | B23

target: T3, IFN-α4a (human, UniProt P05014 24-189); assay: ProteOn, one antigen concentration
T3 construct: also called IFN-αM1

Row | Kd | Binder
47 | 113 pM | B1
48 | 258 pM | B2
49 | 410 pM | B3
50 | 269 pM | B4
51 | 91 pM | B5
52 | 123 pM | B6
53 | 139 pM | B7
54 | 110 pM | B8
55 | 235 pM | B9
56 | 233 pM | B10
57 | 122 pM | B11
58 | 319 pM | B12
59 | 170 pM | B13
60 | 147 pM | B14
61 | 336 pM | B15
62 | 744 pM | B16
63 | 164 pM | B17
64 | 319 pM | B18
65 | 85 pM | B19
66 | 477 pM | B20
67 | 267 pM | B21
68 | 622 pM | B22
69 | 235 pM | B23

target: T4, IFN-αWA (human, UniProt P05015 24-189); assay: ProteOn, one antigen concentration
T4 construct: also called IFN-α16; alpha WA

Row | Kd | Binder
70 | 33 pM | B1
71 | 173 pM | B2
72 | 207 pM | B3
73 | 118 pM | B4
74 | 37 pM | B5
75 | 52 pM | B6
76 | 76 pM | B7
77 | 31 pM | B8
78 | 105 pM | B9
79 | 61 pM | B10
80 | 41 pM | B11
81 | 123 pM | B12
82 | 37 pM | B13
83 | 51 pM | B14
84 | 137 pM | B15
85 | 517 pM | B16
86 | 106 pM | B17
87 | 200 pM | B18
88 | 26 pM | B19
89 | 258 pM | B20
90 | 87 pM | B21
91 | 98 pM | B22
92 | 141 pM | B23

target: T5, human IFN-ω (human, UniProt P05000 24-195); assay: ProteOn, one antigen concentration
T5 construct: also called interferon omega

Row | Kd | Binder
93 | 4 pM | B1
94 | 59 pM | B2
95 | 108 pM | B3
96 | 13 pM | B4
97 | 20 pM | B5
98 | 17 pM | B6
99 | 34 pM | B7
100 | 6 pM | B8
101 | 19 pM | B9
102 | 25 pM | B10
103 | 26 pM | B11
104 | 18 pM | B12
105 | 4 pM | B13
106 | 21 pM | B14
107 | 42 pM | B15
108 | 345 pM | B16
109 | 39 pM | B17
110 | 57 pM | B18
111 | 15 pM | B19
112 | 53 pM | B20
113 | 60 pM | B21
114 | 30 pM | B22
115 | 49 pM | B23

target: T6, IFN-αJ1 (human, UniProt P01567 24-189); assay: ProteOn, one antigen concentration
T6 construct: also called IFN-α7; alpha J1

Row | Kd | Binder
116 | 140 pM | B1
117 | 166 pM | B2
118 | 360 pM | B3
119 | 254 pM | B4
120 | 71 pM | B5
121 | 98 pM | B6
122 | 135 pM | B7
123 | 95 pM | B8
124 | 110 pM | B9
125 | 174 pM | B10
126 | 79 pM | B11
127 | 223 pM | B12
128 | 130 pM | B13
129 | 136 pM | B14
130 | 245 pM | B15
131 | 2400 pM | B16
132 | 113 pM | B17
133 | 245 pM | B18
134 | 72 pM | B19
135 | 607 pM | B20
136 | 287 pM | B21
137 | 388 pM | B22
138 | 161 pM | B23

target: T7, IFN-αC (human, UniProt P01566 24-189); assay: ProteOn, one antigen concentration
T7 construct: also called IFN-α10; alpha C

Row | Kd | Binder
139 | 48 pM | B1
140 | 50 pM | B2
141 | 99 pM | B3
142 | 93 pM | B4
143 | 17 pM | B5
144 | 43 pM | B6
145 | 31 pM | B7
146 | 54 pM | B8
147 | 47 pM | B9
148 | 56 pM | B10
149 | 55 pM | B11
150 | 54 pM | B12
151 | 23 pM | B13
152 | 41 pM | B14
153 | 49 pM | B15
154 | 620 pM | B16
155 | 34 pM | B17
156 | 46 pM | B18
157 | 12 pM | B19
158 | 65 pM | B20
159 | 121 pM | B21
160 | 101 pM | B22
161 | 59 pM | B23
